Tested on: MS2 coat protein
Assay: apparent KD of MS2 coat protein; designed switch direction (-1 OFF switch, 1 ON switch): 1; higher = weaker reporter binding
Method in brief: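 Apparent KD, taken as the median over clusters for each design, was obtained by curve-fitting normalised cluster fluorescence. Designed RNA switches had been transcribed on Illumina chips by stalled E. coli RNA polymerase and titrated with SNAP-549-labelled MS2 coat protein, doubling from 0.7 or 1.5 nM to 3 µM.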

[1] = input ligand: microRNA oligo, concentration not stated
[2] = Eterna round: R95, input ligand: FMN 200 uM
[3] = Eterna round: R95, input ligand: microRNA oligo, concentration not stated
[4] = Eterna round: R95, input ligand: none

Sequence	apparent KD of MS2 coat protein (input ligand: FMN 200 uM)	apparent KD of MS2 coat protein [1]	apparent KD of MS2 coat protein (input ligand: none)	apparent KD of MS2 coat protein [2]	apparent KD of MS2 coat protein [3]	apparent KD of MS2 coat protein [4]
AUGCCAAAUCGAGGAUAUGGAGCCUUAUUGGCUCCAGAAGGUGAGACAUGAGGAUCACCCAUGUGGCAGUGGUCUAAUGACCAC [Fiskers NG1ss - 32] (Eterna round: R96, puzzle: Same State NG 1)	0.174 µM	0.27 µM	0.581 µM			
GGAAUAUUUACAGGAUAUGAUUUGUAAAUUCGAUCAGAAGGGUAGAUGUCUUACACGACUUGUUACAUGAGGAUCACCCAUGUU [SameState NG1 #9] (Eterna round: R96, puzzle: Same State NG 1)	0.0416 µM	0.0488 µM	0.0673 µM			
GCCAACUCAUGAGGAUAUGGCACCUUAUUGGUGCCAGAAGGCAUGUCUAUUGACAUGAGGAUCACCCAUGUAUUAUAGUUGGCA [Fiskers NG1ss - 23] (Eterna round: R96, puzzle: Same State NG 1)	0.0839 µM	0.192 µM	0.859 µM			
GAGAGACGAUUAGGAUAUCCGGUGAUAAUGAUAGGAGAAGGAAUUGACAUGAGGAUCACCCAUGUGGGAAUAAUCCAGAGAGAG [Parity 24 - Jieux - Same State NG 1] (Eterna round: R96, puzzle: Same State NG 1)	0.0865 µM	0.0665 µM	0.0897 µM			
AACAAUCUAUCUGAGGAUAUCAUGAAAUAAACAUGAGGAUCACCCAUGUGCAGGAAAACUGUAUAUGAGAAGGCAGAUAGAUUGA [salish99_ss2_r3_046] (puzzle: Same State 2)				0.0148 µM	0.0692 µM	0.101 µM
UGGCUCAGACGAGGAUAUACGUGGUCACAUGAGGAUCACCCAUGUCUCGAGCUUCGGCUCGAGGCGUAGAAGGUGUCUGAGCCU [SSNG2/6-C3] (Eterna round: R96, puzzle: Same State NG 2)	0.237 µM	0.363 µM	0.662 µM			
AAUUUAAUACAUGAGGAUCACCCAUGUAAAUUAAUUAAGAUCAAGGAUAUCAGCUCGAUUAGAGCUGAGAAGGUGAUCACAUGU [SSNG3/19-A2] (Eterna round: R96, puzzle: Same State NG 3)		0.307 µM				
GAGGGCGAAAGCGACAUGAGGAUCACCCAUGUCCUCGGAGGACAGGAUAUCCGGCAAAAGCCGAAGGAGAAGGGUCGAAAAGAA [AK SSNG3-V2-37] (Eterna round: R96, puzzle: Same State NG 3)	0.0472 µM	0.0697 µM	0.136 µM			
AUUAUUAAUGCAGGAUAUGAUUAACAUGAGGAUCACCCAUGUGGUGUUGUGAGUAAGGAGAGUGAUCAGAAGGGCAUUUUUUUG [JMF's solution 19] (Eterna round: R96, puzzle: Same State NG 2)	0.42 µM	0.423 µM	0.452 µM			
UGAAUAUUUACAGGAUAUGAGUUGUAUAGUGGGUCAGAAGGGUGGGUGUUUUGCACGGUGUGUUACAUGAGGAUCACCCAUGUU [SameState NG1 #27] (Eterna round: R96, puzzle: Same State NG 1)	0.129 µM	0.0745 µM	0.146 µM			
GGAGCUGGCACUGAGGAUAUUCAUAUUUAAACAUGAGGAUCACCCAUGUAGGCCAGAAGGCCUUGGGAGAAGGCAGGUCGGCUCG [salish99_ss2_r3_085] (puzzle: Same State 2)				0.0246 µM	0.254 µM	0.354 µM
UGUUGUAUUACAGGAUAUCUAUGAUUUUUAUCUAGAGAAGGGUAUUCACAUGAGGAUCACCCAUGUAUAUACGAGGAAGUUGUG [JMF's solution 69] (Eterna round: R96, puzzle: Same State NG 1)		0.0251 µM				
CCGAAAGGAGUAGGAUAUGUAGGAUAUGCCUACAUGAGGAUCACCCAUGUUCGCAUGGCAGAAGGACAGAAGGACACGGAAACG [pwkr ssNG2 2FMN + 1F5.12] (Eterna round: R96, puzzle: Same State NG 2)	0.101 µM	0.113 µM	0.293 µM			
GCUAGUAUAAUUGCUAACAUGAGGAUCACCCAUGUAUGUUGGCAGGAUAUCGUUUGCAAAGCAAACGAGAAGGGCUAAACUAGC [Mat - Same State NG 3 - JL Mod - D14] (Eterna round: R96, puzzle: Same State NG 3)	0.0363 µM	0.103 µM	0.104 µM			
AACAAUCUAUCUGAGGAUAUCAUGAAAUAAACAUGAGGAUCACCCAUGUGCAGGAAAUCUGCAUAUGAGAAGGCAGAUAGAUUGA [salish99_ss2_r3_043] (Eterna round: R96, puzzle: Same State 2)		0.672 µM				
AGUCCACCCUGAGGUGGACAAAAGCAUGUACAUGAGGAUCACCCAUGUCAUGUACAAGCUUUUUGCUCGUCUUAAUA [Mat - hsa-mir-208a - Mod of JL - D42] (puzzle: Sensor for hsa-mir-208a)				0.589 µM	0.0179 µM	0.734 µM

— the supplement of paper PMC9170038
